# Results reported in article PMC2148214 (The Journal of Cell Biology, 1999).
# Molecular target: the molecule itself
# Assay: velocity gradient sedimentation
protein,measurement,value
"wild-type HTLV-1 envelope precursor glycoprotein (natural protein, UniProt P03381 21-488, looked up) DYSPSCCTLTIGVSSYHSKPCNPAQPVCSWTLDLLALSADQALQPPCPNLVSYSSYHATYSLYLFPHWTKKPNRNGGGYYSASYSDPCSLKCPYLGCQSWTCPYTGAVSSPYWKFQHDVNFTQEVSRLNINLHFSKCGFPFSLLVDAPGYDPIWFLNTEPSQLPPTAPPLLPHSNLDHILEPSIPWKSKLLTLVQLTLQSTNYTCIVCIDRASLSTWHVLYSPNVSVPSSSSTPLLYPSLALPAPHLTLPFNWTHCFDPQIQAIVSSPCHNSLILPPFSLSPVPTLGSRSRRAVPVAVWLVSALAMGAGVAGGITGSMSLASGKSLLHEVDKDISQLTQAIVKNHKNLLKIAQYAAQNRRGLDLLFWEQGGLCKALQEQCRFPNITNSHVPILQERPPLENRVLTGWGLNWDLGLSQWAREALQTGITLVALLLLVILAGPCILRQLRHLPSRVRYPHYSLIKPESSL",stoichiometry N,2
